B1: moTAPBPR: recombinant luminal domain of mouse TAPBPR, XP_030111162.1 (protein)
chain: TDPPTAPTTAERQRQPTDIILDCFLVTEDRHRGAFASSGDRERALLVLKQVPVLDDGSLEGITDFQGSTETKQDSPVIFEASVDLVQIPQAEALLHADCSGKAVTCEISKYFLQARQEATFEKAHWFISNMQVSRGGPSVSMVMKTLRDAEVGAVRHPTLNLPLSAQGTVKTQVEFQVTSETQTLNHLLGSSVSLHCSFSMAPGLDLTGVEWRLQHKGSGQLVYSWKTGQGQAKRKGATLEPEELLRAGNASLTLPNLTLKDEGNYICQISTSLYQAQQIMPLNILAPPKIQLHLANKDPLPSLVCSIAGYYPLDVGVTWIREELGGIPAQVSGASFSSLRQSTMGTYSISSTVMADPGPTGATYTCQVAHVSLEEPLTTSMRVLPNPEQRG
B2: chTapasin: recombinant luminal domain of chicken Tapasin, a homolog of TAPBPR (protein)
chain: QFRVEDAASPPPPPAPVRCALLEGVGRGGGLPGGGNARPALLRFGGDAETPPEPGPEPEVTFNVSDPWGTLTPLGVPPRTPPSCELNPTNPQTGSDPWSRPLHPDARSPPTAGGQWWVAAVGTPQYGVTALLQGGMGTEGTITAAVALAVLTHTPTLRARVGSPIHLHCAFAAPPSSFVLEWRHQNRGAGRVLLAYDSSTARAPRAHPGAELLLGTRDGDGVTAVTLRLARPSPGDEGTYICSVFLPHGHTQTVLQLHVFEPPKVTLSPKNLVVAPGTSAELRCHVSGFYPLDVTVTWQRRAGGSGTSQSPRDTVMDSWTSGHRQAADGTYSRTAAARLIPARPQHHGDIYSCVVTHTALAKPMRVSVRLLLAGTEGPHLEDIT
B3: hTAPBPR^KRQ: human TAPBPR mutant R105K, K211R, R270Q (protein)
chain: KPHPAEGQWRAVDVVLDCFLAKDGAHRGALASSEDRARASLVLKQVPVLDDGSLEDFTDFQGGTLAQDDPPIIFEASVDLVQIPQAEALLHADCSGKEVTCEISKYFLQMTETTVKTAAWFMANMQVSGGGPSISLVMKTPRVTKNEALWHPTLNLPLSPQGTVRTAVEFQVMTQTQSLSFLLGSSASLDCGFSMAPGLDLISVEWRLQHRGRGQLVYSWTAGQGQAVRKGATLEPAQLGMARDASLTLPGLTIQDEGTYICQITTSLYQAQQIIQLNIQASPKVRLSLANEALLPTLICDIAGYYPLDVVVTWTREELGGSPAQVSGASFSSLRQSVAGTYSISSSLTAEPGSAGATYTCQVTHISLEEPLGASTQVVPPERR

Experiments:
HLA-A*02:01 [1] = biological target: T1, HLA-A*02:01 (Homo sapiens, UniProt P04439, D140Y/D185E/D98H/E176V/E277Q/G131W/G231S/I119V/I121R/I166T/I218V/L300P/L318F/N151K/N90K/P208A/P217A/Q86G/Q94H/R138H/R169H/T345S); test: Native gel shift assay (EMSA); assay type: binding; conditions: UV-irradiated HLA-A*02:01/KILGFVFJV, 1:1 molar ratio
Method: (§1) For native gel shift assays, purified MHC-I molecules refolded with photo-labeled peptides (pMHC-I) and TAPBPR proteins were loaded into polyacrylamide gels alone at 7 μM concentration and as mixtures. For the mixtures, 1:1 molar ratio of pMHC-I and TAPBPR samples at 7 μM each were prepared and incubated at room temperature (RT) for 1 hour. The samples were then UV-irradiated for another hour at 365 nm and were run at 90 V for 5.5 hours on a 12% polyacrylamide gel. Staining was performed using InstantBlue (Novus Biologicals).
as §1, with “Native gel” for “For native gel”, “shift assay. Purified” for “shift assays, purified”, “mixtures, a” for “mixtures,”, “each was” for “each were”, “at RT” for “at room temperature (RT)”

[2] = system: 96 different HLA allotypes on single antigen HLA class I beads; test: SAB screen, all beads; assay type: binding, human; conditions: across HLA allotypes; FIG. 23e
Method: For the Single Antigen Bead Screen, 7 μM of TAPBPR in tetramers were mixed with 4 μL of the LABScreen single antigen HLA-I bead suspension (OneLambda, Inc., CA, USA) in a 96-well plate. The samples were incubated for 1 hour, 550 rpm at RT, washed four times in Wash Buffer (OneLambda, Inc., CA, USA) to remove excess of tetramers and re-suspended in 1×PBS buffer (pH 7.2). For the negative controls, beads were incubated with the Anti-HLA Class I antibody W6/32 (Abcam, ab22432) for 30 min, 550 rpm at RT and washed three times prior tetramer addition. To test the levels of peptide loaded MHC-I molecules on the beads, Applicants used the same W6/32 antibody and the secondary anti-mouse PE-conjugated antibody (Abcam, ab97024) for detection. The levels of TAPBPR bound to the beads were measured using the Luminex 100 Liquid Array Analyzer System and the results were analyzed in GraphPad Prism v7.
SABs screen. 7 μM of TAPBPR in tetramers were mixed with 4 μL of the LABScreen single antigen HLA-I bead suspension (OneLambda, Inc., CA, USA) in a 96-well plate. […] The levels of TAPBPR bound to the beads were measured using the Luminex 100 Liquid Array Analyzer System and the results were analyzed in GraphPad Prism v9.

[3] = DSF thermal stability of chaperone proteins; conditions: DSF of the recombinant chaperone protein
HLA-B*37:01 = HLA-B*37:01 (Homo sapiens, UniProt P01889, A329T/A93T/A95T/C349S/D138N/D201E/D98Y/E176V/E187T/E204Q/E69T/G107R/H137Y/K202T/L119I/N104T/N87E/Q94N/R106L/R155S/R180D/S101D/S121R/V306I/Y123S/Y140F/Y33H/Y91S); test: SAB screen; assay type: binding; conditions: HLA-B*37:01 beads; FIG. 41
HLA-A*02:06 = biological target: T2, HLA-A*02:06 (Homo sapiens, UniProt P04439, D140Y/D185E/D98H/E176V/E277Q/F33Y/G131W/G231S/I119V/I121R/I166T/I218V/L300P/L318F/N151K/N90K/P208A/P217A/Q86G/Q94H/R138H/R169H/T345S); test: Fluorescence polarization (FP) peptide exchange; assay type: biochemical; conditions: pHLA-A*02:06
T2 construct: made in house

HLA-A*02:01 [4] = biological target: T1, HLA-A*02:01; test: SPR; conditions: peptide-deficient (empty) HLA-A*02:01
HLA-A*01:01 = HLA-A*01:01 (Homo sapiens, UniProt P04439, A114D/A174V/A182V/D101N/D185E/E176A/E190D/L180R/Q94H/R68K/S129P/T187R/V100A/V91M/W191G); test: Fluorescence polarization (FP) peptide exchange; conditions: HLA-A*01:01, chaperone at 5 μM
HLA-A*02:01 [5] = biological target: T1, HLA-A*02:01; test: Fluorescence polarization (FP) peptide exchange; conditions: HLA-A*02:01/KILGFVFβFV, […]
HLA-B*08:01 = HLA-B*08:01 (Homo sapiens, UniProt P01889, A93T/A95T/D138N/E176V/E187T/K202T/Q94N/R180D/S35A/V36M/Y33D/Y91F); test: Fluorescence polarization (FP) peptide exchange; conditions: based on DSF or FP assays

Molecule	TAPBPR/MHC-I complex formation (HLA-A*02:01 [1])	MFI ratios [2]	Tm [3] [°C]	binding of Tapasin tetramers (MFI) (HLA-B*37:01)	k2overall, fold improved compared to hTAPBPR (HLA-A*02:06)	Kd (HLA-A*02:01 [4]) [nM]	apparent rate constant kapp (HLA-A*01:01) [s⁻¹]	k2overall, fold higher than hTAPBPR (HLA-A*02:01 [5])	Peptide exchange (HLA-B*08:01)
B1	formed a new band	less than 5.8	56	–	–	–	–	–	–
B2	–	–	58	tight binding	–	–	–	–	–
B3	–	–	52.3	–	approximately 9 fold	243	0.00013	approximately 60 fold	failed to catalyze peptide exchange

Source: patent publication US20250179143A1, “SYSTEMS AND METHODS FOR CHAPERONE-MEDIATED LIGAND EXCHANGE ON MHC-I AND MHC-RELATED MOLECULES USING CHICKEN TAPBPR” (priority 2022, published 2025)
